Where no end group is shown, it is not given here.
T1: native human ESRRG protein (Homo sapiens, UniProt P62508)
T1 sequence (P62508 1-458): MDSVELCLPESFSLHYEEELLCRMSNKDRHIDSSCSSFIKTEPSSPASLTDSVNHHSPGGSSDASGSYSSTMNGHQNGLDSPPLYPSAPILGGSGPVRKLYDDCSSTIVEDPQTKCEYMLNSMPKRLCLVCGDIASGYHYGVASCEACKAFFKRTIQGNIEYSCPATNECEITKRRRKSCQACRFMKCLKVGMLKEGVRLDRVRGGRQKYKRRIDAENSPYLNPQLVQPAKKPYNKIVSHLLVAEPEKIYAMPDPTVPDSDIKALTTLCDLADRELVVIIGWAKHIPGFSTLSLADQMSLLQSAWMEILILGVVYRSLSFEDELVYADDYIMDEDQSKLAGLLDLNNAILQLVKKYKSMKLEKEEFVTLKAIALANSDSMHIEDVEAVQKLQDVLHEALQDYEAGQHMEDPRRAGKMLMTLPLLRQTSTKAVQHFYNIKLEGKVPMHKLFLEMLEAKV

T2: native human ESRRG protein (Estrogen-receptor related receptor gamma) (human, UniProt P62508 229-458, limits assumed)
T2 construct: the screened protein is called 'native human ESRRG protein'; also called ESSRG; ERRγ
T2 sequence (looked up): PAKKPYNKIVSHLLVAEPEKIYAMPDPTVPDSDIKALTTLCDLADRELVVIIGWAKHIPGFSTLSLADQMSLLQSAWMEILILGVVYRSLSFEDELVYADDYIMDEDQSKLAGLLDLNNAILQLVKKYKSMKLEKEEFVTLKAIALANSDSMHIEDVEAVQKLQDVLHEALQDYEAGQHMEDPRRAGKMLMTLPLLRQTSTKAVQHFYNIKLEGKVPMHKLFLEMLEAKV


Target: T1, native human ESRRG protein
Experiment: peptide microarray screening for ESRRG binding (Iteration 1 and 2)
Details: Iteration 1 primary screen
Text: The BLOSUM62 matrix was divided into Tiers based, with Tier 1 comprising “most conserved” (lowest penalty) and Tier 3 comprising “least conserved” (highest penalty) mutations observed in nature. Sequences for microarray production for the primary stage (Iteration 1) of screening for protein binding were created by permuting AA positions 4 and/or 5 only (i.e., core of sequence) of parent 8-mer peptides using Tier 1 and Tier 3 substitutions. This allows the systematic variation of the sequence in order to identify the most important motif within the larger candidate ligand sequence that is needed for binding the target protein. All peptides on the array were grown from the C→N terminal, with the exposed N-terminal amino acid masked by an acetyl group to prevent folding of the sequence and enable full presentation of the peptide to its target protein.
(§1) Screening was carried out typically by hybridization of the protein (1 μg/mL) against the array for 1 h at 4° C.; detection of bound protein was carried out using a fluorescently labeled anti-ESRRG mAb. (Direct labeling of ESRRG and alternative detection strategies are equally valid).
Highest binders (based on relative fluorescence signal) were selected and iteratively sequence expanded and arrayed (Iteration 2); and ESRRG binding sequences were selected as above. For iterative arrays, the core positions (AA 4 and 5) were kept unchanged while the outer amino acids (2, 3, 6, and/or 7) were permuted using Tier 3 substitutions.
Daughter candidate ligands and their new Tier 3 and/or Tier 1 based combinations were synthesized in situ on an addressable peptide microarray and screened against native human ESRRG protein in order to determine sequences that bind to this protein. Bound protein was detected by a fluorescently labeled anti-ESRRG mAb. Results are obtained in fluorescence intensity units which were used to rank the peptide ligands. Excess (100×) competing biological matrices (human serum, HSA/BSA or bacterial protein extract) were used as backgrounds to select for specific ligands to the protein. Other competing proteins can be added to background for specificity selection and directed evolution of ligands.
Iterative sequence expansion and arraying of 10 highest binding ligands to ESRRG from Iteration 1 was carried out and the new peptide sequences were synthesized on an array and screened against the protein, as described above. In this step, the central 2 amino acids (core) in peptide sequences were maintained unchanged while outlying amino acids (2, 3, 6, and 7) were permuted (using Tier 1 and Tier 3 substitutions) in a ‘cipher’ or ‘combination’ lock approach. Further affinity maturation of sequence was observed, with multifold enhancement in binding signal of Iteration 2 sequences (i.e., Granddaughters) compared to their respective parents from Iteration 1 (i.e., Daughters) on the same array.

log2 (Sample B/Sample A) | Molecule
9.63 | Ac-IKQNHNNS-NH2 (C-terminus assumed)
5.07 | Ac-AIRLHLMG-NH2 (C-terminus assumed)

Same assay, conditions: Iteration 1 primary screen; fluorescence intensity units

Sample A (Bkgd) Signal | Sample B (Probe) Signal | Molecule
1.00 | 793.75 | Ac-IKQNHNNS-NH2 (C-terminus assumed)
47.85 | 3,242.55 | NSLRQHLL
28.09 | 942.75 | Ac-AIRLHLMG-NH2 (C-terminus assumed)
41.92 | 1,606.54 | ANNLWLLH
16.99 | 1,217.01 | AANMSLLL
23.70 | – | IKQNYNNS

Same assay, conditions: Iteration 2 iterative screen

log2 (Sample B/Sample A) | Molecule
3.05 | Ac-LYLLKHHP-NH2 (C-terminus assumed)

Same assay, conditions: Iteration 2 iterative screen; fluorescence intensity units

Molecule | Sample A (Bkgd) Signal | Sample B (Probe) Signal
HLKLKQEN | 183.65 | 1,745.92
HFKLKQGG | 641.69 | 3,108.23
Ac-LYLLKHHP-NH2 (C-terminus assumed) | 304.92 | 2,527.00
AFNMYLDE | 115.25 | –
LILLQQLD | 177.10 | 1,251.12
HDNMYLNE | 81.50 | 7,243.75
HNNFSLEP | 107.88 | –

Further lines, results first:

Sample A (Bkgd) Signal | Sample B (Probe) Signal | Molecule
209.87 | 2,464.29 | TGKLKQDG
181.65 | 2,343.96 | WIKLKQND
199.94 | 4,374.19 | NNNFSLHM

Target: T2, native human ESRRG protein …
Experiment: peptide microarray, Iteration 2; bound ESRRG detected with fluorescent anti-ESRRG mAb
Details: not given
Experimental: as §1
Iterative sequence expansion and arraying of 10 highest binding ligands to ESRRG from Iteration 1 was carried out and the new peptide sequences were synthesized on an array and screened against the protein, as described above. In this step, the central 2 amino acids (core) in peptide sequences were maintained unchanged while outlying amino acids (2, 3, 6, and 7) were permuted (using Tier 1 and Tier 3 substitutions) in a ‘cipher’ or ‘combination’ lock approach.

Molecule | Sample B (Probe) Signal | log2 (Sample B/Sample A)
Ac-HFKLKQGG | 3110 fluorescence intensity units | 2.28
Ac-LFKLKQND | 1860 fluorescence intensity units | 2.34
Ac-DINFSLGI | 4800 fluorescence intensity units | 4.9
Ac-LFLLQQDD | 2420 fluorescence intensity units | 3.47
Ac-HDNMYLNE | 7240 fluorescence intensity units | 6.47
Ac-LILLQQLD | 1250 fluorescence intensity units | 2.82
Ac-DNNYLLLL | 2240 fluorescence intensity units | 3.84
Ac-HYKLKQHE | 1300 fluorescence intensity units | 2.97
Ac-HLKLKQEN | 1750 fluorescence intensity units | 3.25
Ac-AHNYLLEH | 619 fluorescence intensity units | 2.42
Ac-FFKGHFKF | 5440 fluorescence intensity units | 3.32
Ac-LFKLKQDG | 2780 fluorescence intensity units | 3.32
Ac-EDSYPRDG | 5020 fluorescence intensity units | 4.08
Ac-FFNFSLPA | 1040 fluorescence intensity units | 2.66
Ac-FWNMYLNP | 775 fluorescence intensity units | 2.29
Ac-HRSYPRRG | 19000 fluorescence intensity units | 4.56
Ac-HNSYPRNE | 802 fluorescence intensity units | 2.48
Ac-HRSYPRVY | 2450 fluorescence intensity units | 2.31
Ac-HNNYLLNN | 964 fluorescence intensity units | 2.34
Ac-GKSYPRHR | 3050 fluorescence intensity units | 2.46

The remaining lines, values ahead:

Sample B (Probe) Signal | log2 (Sample B/Sample A) | Molecule
2460 fluorescence intensity units | 3.55 | Ac-TGKLKQDG
1310 fluorescence intensity units | 2.45 | Ac-YHNYLLHP
13800 fluorescence intensity units | 4.88 | Ac-NFNYLLPH
2340 fluorescence intensity units | 3.69 | Ac-WIKLKQND
3420 fluorescence intensity units | 2.23 | Ac-NNSYPRHR
2860 fluorescence intensity units | 3.97 | Ac-WANYLLPP
2300 fluorescence intensity units | 3.41 | Ac-NLLLKHPD
2200 fluorescence intensity units | 2.91 | Ac-WNSYPRND
5590 fluorescence intensity units | 4.27 | Ac-PDSYPRWG
1340 fluorescence intensity units | 2.76 | Ac-PWKLKQDP
1230 fluorescence intensity units | 2.56 | Ac-WGKLKQGE
4370 fluorescence intensity units | 4.45 | Ac-NNNFSLHM
